# Values joined by “and” are separate entries in the source; they are usually repeats but may differ in a detail not shown here. Equal values may be shown once.
# B1: mAb dB4C7 (human deimmunized, Fc-aglycosylated IgG1 derived from murine mAb B4, expressed by clone 7) (antibody, V domains shown)
# VH: QVQLVQSGPELKKPGASVKVSCKASGYTFTDYVIHWVKQATGQGLEWIGEIYPGSGSAYSNAKFKDRVTMTADKSSNTAYMELSSLTSDDTAVYFCARRGNGTGFAYWGQGTLVTVSS
# VL: DIVLTQSPASLAVSLGQRATITCKAGQSVDYDGDSYMNWYQQKPGQPPKLLIYVASNLESGIPARFSGSGSGTDFTLNIHPVEENDAATYYCQQSYKDPLTFGQGTKLEIKR
# modifications: N-glycosylated at Asn101 in the Fv; Fc N-glycosylation site removed (N298H)
# notes: treated as one molecule; also called deimmunized B4
# What was measured:
# [1] = target: T1, human CD4, membrane-bound on cells (HPB-ALL cells, blood/PBMC CD4+ T cells, assay target cells) (human, UniProt P01730 26-458); experiment: cell-based or functional assay
# recombinant soluble CD4 = target: T2, recombinant soluble CD4 (UniProt P01730 26-390, limits assumed); experiment: competition ELISA on coated sCD4/p2704a mixture; inhibition of B4-biotin (10 µg/mL)
# T2 construct: also called sCD4; rsCD4
# [2] = target: T1, human CD4, membrane-bound on cells …; experiment: FACS, fresh blood CD4+ T cells of subject M2; bound dB4 detected by goat anti-hIgG-FITC
# Description: (§1) The samples were calibrated with reference beads for fluorescence reading.
# [3] = target: T1, human CD4, membrane-bound on cells …; experiment: FACS, fresh blood CD4+ T cells of subject M3; bound dB4 detected by goat anti-hIgG-FITC
# Description: as §1
# [4] = target: T1, human CD4, membrane-bound on cells …; experiment: FACS, fresh blood CD4+ T cells, mean of six subjects; bound dB4 detected by goat anti-hIgG-FITC
# Description: as §1
# [5] = target: T1, human CD4, membrane-bound on cells …; experiment: FACS direct binding to HPB-ALL cells, on ice 1 h, goat F(ab)2 anti-huIgG Fc-FITC; EC50 by MFI, exp. 2
# Protocol: (§2) On V-bottomed microplates, aliquots of 2×10⁵ cells in 0.1 mL per well were added, centrifuged, and liquid discarded. […] This step was repeated one more time. The cells from the three incubations (passages) were investigated. […] The cells were washed once and the liquid discarded after centrifugation. To each well, aliquots of 200 μL of binding buffer were added and transferred to microdilution tubes for flow cytometric analysis. The binding intensity (mean fluorescence intensity, MFI), based on an inlet of 5,000 cells per sample, was read on FACS.
# (§3) The absolute MFI values were also normalized to % MFI for purpose of between-passage comparison.
# [6] = target: T1, human CD4, membrane-bound on cells …; experiment: FACS direct binding to HPB-ALL cells, on ice 1 h, goat F(ab)2 anti-huIgG Fc-FITC; EC50 by MFI, exp. 3
# Protocol: as §2, §3
# [7] = target: T1, human CD4, membrane-bound on cells …; experiment: FACS direct binding to HPB-ALL cells, on ice 1 h, goat F(ab)2 anti-huIgG Fc-FITC; EC50 by % MFI, exp. 2
# Protocol: as §2, §3
# [8] = target: T1, human CD4, membrane-bound on cells …; experiment: FACS, fresh blood CD4+ T cells of subject F1; free CD4 sites left by dB4 detected by dB4C7-Alexa (250 ng/mL)
# [9] = target: T1, human CD4, membrane-bound on cells …; experiment: FACS, fresh blood CD4+ T cells of subject F3; free CD4 sites left by dB4 detected by dB4C7-Alexa (250 ng/mL)
# [10] = target: T1, human CD4, membrane-bound on cells …; experiment: FACS, fresh blood CD4+ T cells of subject M3; free CD4 sites left by dB4 detected by dB4C7-Alexa (250 ng/mL)
# [11] = target: T1, human CD4, membrane-bound on cells …; experiment: saturation binding to HPB-ALL cells on ice 1 h; free antibody by ELISA, bound by subtraction, curve fit; exp. 1
# Protocol: (§4) The resultant saturating free-vs.-bound concentration profiles were analyzed on SigmaPlot by curve-fitting based on the equation, [B]=Bmax·{[F]/([F]+Kd)}, where the respective [B] and [F] stand for the bound and free concentrations.
# (§5) The binding study was conducted at cold and/or under 0.05% azide to avoid a potential endocytosis of the ligand-receptor complexes. Incubation at room temperature or 37° C. could allow a reaction plateau to be reached sooner. […] The supernatants were collected for determination by ELISA of the free drug concentrations, and the bound fractions were obtained by subtraction from the total.
# [12] = target: T1, human CD4, membrane-bound on cells …; experiment: saturation binding to HPB-ALL cells on ice 1 h; free antibody by ELISA, bound by subtraction, curve fit; exp. 2
# Protocol: as §4, §5
# [13] = target: T1, human CD4, membrane-bound on cells …; experiment: FACS direct binding to blood CD4+ T cells of one individual, 4°C 1 h (printed as IC50 here, as EC50 in paragraph 342)
# Description: The MFI values reflect the degree of receptor occupancy, in particular when these values are normalized and expressed as % MFI.
# [14] = target: T1, human CD4, membrane-bound on cells …; experiment: saturation binding to HPB-ALL cells on ice 1 h; free antibody by ELISA, bound by subtraction, curve fit; mean of 3
# Protocol: as §4, §5
binder,measurement,setting,value
B1,"IC50 of HIV entry inhibition, pseudotype virus 92TH594 (R5/X4), U87-CD4+/CCR5+/CXCR4+ cells",[1],0.05 µg/mL
same,"IC50 of HIV entry inhibition, pseudotype virus HXB2 (X4), U87-CD4+/CCR5+/CXCR4+ cells",[1],0.4 µg/mL
same,IC50,recombinant soluble CD4,8.19 µg/mL
same,EC50,[2],0.0042 µg/mL
same,EC50,[3],0.0026 µg/mL
same,EC50,[4],0.0041 µg/mL
same,EC50,[5],0.0437 µg/mL
same,EC50,[6],0.0407 µg/mL
same,EC50,[7],0.0457 µg/mL
same,EC50,[8],0.0043 µg/mL
same,EC50,[9],0.0043 µg/mL
same,EC50,[10],0.0033 µg/mL
same,Kd,[11],0.057 nM and 0.0086 µg/mL
same,Kd,[12],0.0121 µg/mL and 0.081 nM
same,EC50,[13],0.023 µg/mL
same,Kd,[14],0.0085 µg/mL and 0.056 nM

# From patent publication US20170369576A1 (UBI US, published 2017)
